In US20130336893A1 (Sanofi, published 2013):
*1 amine or outer side, *2 acyl side, *3 side chain or, on linkers, in order; H or OH if unused. Where no end group is shown, it is not given here. Side-chain parts run from the residue outwards. [ ]: non-standard residue; d: D form. The star is where a group is joined. γGlu = O=C(O)[C@H](CCC(=O)[*:2])N[*:1]; Palmitoyl = CCCCCCCCCCCCCCCC(=O)*

B1: SEQ ID NO: (74) (peptide)
peptide: H[dS]QGTFTSDLSKQMESRRAQDFIEWLKNTGPSSGAPPPSK([γGlu-Palmitoyl])-NH2
modifications: N-terminus assumed
SMILES: CCCCCCCCCCCCCCCC(=O)N[C@@H](CCC(=O)NCCCC[C@H](NC(=O)[C@H](CO)NC(=O)[C@@H]1CCCN1C(=O)[C@@H]1CCCN1C(=O)[C@@H]1CCCN1C(=O)[C@H](C)NC(=O)CNC(=O)[C@H](CO)NC(=O)[C@H](CO)NC(=O)[C@@H]1CCCN1C(=O)CNC(=O)[C@@H](NC(=O)[C@H](CC(N)=O)NC(=O)[C@H](CCCCN)NC(=O)[C@H](CC(C)C)NC(=O)[C@H](Cc1c[nH]c2ccccc12)NC(=O)[C@H](CCC(=O)O)NC(=O)[C@@H](NC(=O)[C@H](Cc1ccccc1)NC(=O)[C@H](CC(=O)O)NC(=O)[C@H](CCC(N)=O)NC(=O)[C@H](C)NC(=O)[C@H](CCCNC(=N)N)NC(=O)[C@H](CCCNC(=N)N)NC(=O)[C@H](CO)NC(=O)[C@H](CCC(=O)O)NC(=O)[C@H](CCSC)NC(=O)[C@H](CCC(N)=O)NC(=O)[C@H](CCCCN)NC(=O)[C@H](CO)NC(=O)[C@H](CC(C)C)NC(=O)[C@H](CC(=O)O)NC(=O)[C@H](CO)NC(=O)[C@@H](NC(=O)[C@H](Cc1ccccc1)NC(=O)[C@@H](NC(=O)CNC(=O)[C@H](CCC(N)=O)NC(=O)[C@@H](CO)NC(=O)[C@@H](N)Cc1c[nH]cn1)[C@@H](C)O)[C@@H](C)O)[C@@H](C)CC)[C@@H](C)O)C(N)=O)C(=O)O
B2: SEQ ID NO: (75) (peptide)
peptide: H[dS]QGTFTSDLSKQMESRRAQDFIEWLKRGGPSSGAPPPSK([γGlu-Palmitoyl])-NH2
modifications: N-terminus assumed
SMILES: CCCCCCCCCCCCCCCC(=O)N[C@@H](CCC(=O)NCCCC[C@H](NC(=O)[C@H](CO)NC(=O)[C@@H]1CCCN1C(=O)[C@@H]1CCCN1C(=O)[C@@H]1CCCN1C(=O)[C@H](C)NC(=O)CNC(=O)[C@H](CO)NC(=O)[C@H](CO)NC(=O)[C@@H]1CCCN1C(=O)CNC(=O)CNC(=O)[C@H](CCCNC(=N)N)NC(=O)[C@H](CCCCN)NC(=O)[C@H](CC(C)C)NC(=O)[C@H](Cc1c[nH]c2ccccc12)NC(=O)[C@H](CCC(=O)O)NC(=O)[C@@H](NC(=O)[C@H](Cc1ccccc1)NC(=O)[C@H](CC(=O)O)NC(=O)[C@H](CCC(N)=O)NC(=O)[C@H](C)NC(=O)[C@H](CCCNC(=N)N)NC(=O)[C@H](CCCNC(=N)N)NC(=O)[C@H](CO)NC(=O)[C@H](CCC(=O)O)NC(=O)[C@H](CCSC)NC(=O)[C@H](CCC(N)=O)NC(=O)[C@H](CCCCN)NC(=O)[C@H](CO)NC(=O)[C@H](CC(C)C)NC(=O)[C@H](CC(=O)O)NC(=O)[C@H](CO)NC(=O)[C@@H](NC(=O)[C@H](Cc1ccccc1)NC(=O)[C@@H](NC(=O)CNC(=O)[C@H](CCC(N)=O)NC(=O)[C@@H](CO)NC(=O)[C@@H](N)Cc1c[nH]cn1)[C@@H](C)O)[C@@H](C)O)[C@@H](C)CC)C(N)=O)C(=O)O

Key:
[1] = target: human GLP-1 receptor (human, UniProt P43220 24-463); test: cell-based or functional assay
[2] = target: human glucagon receptor (human, UniProt P47871 26-477); test: cell-based or functional assay
Chain of human glucagon receptor (P47871 26-477): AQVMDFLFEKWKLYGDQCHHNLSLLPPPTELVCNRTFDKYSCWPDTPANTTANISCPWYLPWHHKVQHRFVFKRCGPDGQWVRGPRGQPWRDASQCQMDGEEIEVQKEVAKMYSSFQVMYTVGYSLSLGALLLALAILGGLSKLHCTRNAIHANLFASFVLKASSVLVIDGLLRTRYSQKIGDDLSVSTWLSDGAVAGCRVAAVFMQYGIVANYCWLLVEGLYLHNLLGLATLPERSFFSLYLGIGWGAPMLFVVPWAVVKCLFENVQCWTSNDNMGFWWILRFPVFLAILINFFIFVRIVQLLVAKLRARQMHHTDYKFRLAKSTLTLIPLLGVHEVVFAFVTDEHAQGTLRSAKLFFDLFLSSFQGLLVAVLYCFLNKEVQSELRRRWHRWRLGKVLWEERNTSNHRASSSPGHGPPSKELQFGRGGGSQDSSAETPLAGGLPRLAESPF

Row | Binder | EC50 hGLP-1R (cAMP formation) [1] [pM] | EC50 hGlucagonR (cAMP formation) [2] [pM]
1 | B1 | 39.6 | 35.5
2 | B2 | 4.6 | 64.1
